According to patent US20210386866A1 (DEVELOPMENT CENTER FOR BIOTECHNOLOGY, published 2021):

Experiments:
[1] = target: T1, human mesothelin recombinant protein (human, UniProt Q13421 296-580, limits assumed); assay: ELISA, plate coated with mesothelin protein, serial dilutions of antibody, non-linear regression
T1 construct: also called mesothelin protein; MSLN
Description: (§1) ELISA plates were coated with 1˜2 μg/100 μl per well of mesothelin protein. Wells were rinsed for 3 times with PBS and blocked with 300 μl 5% MPBS per well for 2 hr at 37° C. After washing with PBS, wells were incubated with serial diluted mesothelin antibodies in 5% MPBS for 1.5 hours at 37° C. The plates were washed and goat polyclonal anti-human IgG-HRP antibody (1:10,000) (Jackson ImmunoResearch) was added into each well. The absorbance was measured as described above and the binding affinities of antibodies were calculated by non-linear regression with Prism software (GraphPad).

[2] = target: T1, human mesothelin recombinant protein; assay: ELISA, plate coated with mesothelin 1 ug/mL, detection with anti-human kappa light chain antibody
Description: (§2) 100 μL of mesothelin in a coating buffer at a concentration of 1 μg/mL was added to and coated on each well of a plate. The plates were sealed and incubated at 4° C. overnight. The wells were aspirated and washed with 300 μL of PBST (0.05% Tween 20) for 3 times. The wells were blocked by adding 200 μL of PBS-5% skim milk and incubated at 37° C. for 1 hour. The wells were aspirated and washed with 300 μL/well of PBST (0.05% Tween 20) for 3 times. 100 μL of 400 ng ADC sample diluted with PBS was added to each well, and the plates were then incubated at 37° C. for 1 hour. The wells were aspirated and washed with 300 μL of PBST (0.05% Tween 20) for 3 times. 50 μl of anti-human Kappa light chains (1:5000) was added to each well, and the plates were incubated at 37° C. for 1 hour. The wells were aspirated and washed with 300 μL/well of PBST (0.05% Tween 20) for 3 times. 100 μl of TMB was added to each well, and the plates were incubated at room temperature for 15 minutes. The color development was stopped by adding 100 μL of 1N HCl.

[3] = target: T1, human mesothelin recombinant protein; assay: ELISA, plate coated with mesothelin at 1 ug/mL, detection with anti-human Kappa light chains
Description: as §2

[4] = target: T1, human mesothelin recombinant protein; assay: SPR, Biacore T100, antibody captured on anti-human IgG-Fc CM5 chip, human mesothelin recombinant protein as analyte (3.7 to 100 nM), 1:1 Langmuir model
Description: (§3) The kinetic constant of the anti-mesothelin ADCs interaction against mesothelin was determined by surface plasma resonance (Biacore® T100, Biacore, Inc., Piscataway, N.J.). The flow cell of the CM5 wafer was fixed with approximately 10,000 reaction units (RU) of anti-human IgG-Fc (Biacore®) in 10 mM glycine pH 5.0 at 10 μL/min for 600 seconds. 10 μg/mL of anti-mesothelin antibody and anti-mesothelin ADCs diluted in TBS at 10 μl/min were captured on CM5 chips. Four concentrations (from 3.7 to 100 nM) of human mesothelin recombinant protein and zero concentration (flow buffer) in 100 μl/min binding were recorded in PBS containing 1 mM CaCl₂ for 3 minutes. The dissociation of the complex was measured for 10 minutes. The water surface was regenerated by injecting 3 M MgCl₂ and 3 mM EGTA at 10 μl/min for 60 seconds. The curve obtained after subtracting the reference and buffer signals was taken into the 1:1 Langmuir binding model using the Biacore® T100 evaluation software (Biacore®).

[5] = target: T1, human mesothelin recombinant protein; assay: SPR, BIAcore T200, mesothelin coupled to CM5 chip, antibody injected (0.3125 nM to 40 nM), 25 degree C, 1:1 Langmuir model
Description: Carboxymethylated dextran biosensor chips (CM5, Cytiva Inc.) were activated with N-ethyl-N′-(3-dimethylaminopropyl)-carbodiimide hydrochloride (EDC) and N-hydroxysuccinimide (NHS) according to the supplier's instructions. Mesothelin protein was diluted with 10 mM sodium acetate, pH 4.0, into 5 μg/ml before injection at a flow rate of 10 μL/minute to achieve approximately 1500 response units (RU) of coupled protein followed by the injection of 1M ethanolamine to block unreacted groups. For kinetics measurements, two-fold serial dilutions of anti-mesothelin mAb (0.3125 nM to 40 nM) were injected in HBS-EP+ Biacore running buffer provided by the manufacturer (Cytiva Inc.) at 25 degree C. at a flow rate of 30 μL/min, and binding responses on the mesothelin protein were corrected by subtraction of responses on a blank flow cell. Association rates (kon or ka) and dissociation rates (koff or kd) were calculated using a simple one-to-one Langmuir binding model with separate fittings of kon and koff was used. (Cytiva.™. Biacore Insight Evaluation Software).

[6] = target: T1, human mesothelin recombinant protein; assay: ELISA, plate coated with mesothelin protein, serial dilutions of antibody, detection with anti-human IgG-HRP
Description: as §1

[7] = target: T1, human mesothelin recombinant protein; assay: SPR, Biacore T100, ADC captured on anti-human IgG-Fc CM5 chip, human mesothelin recombinant protein as analyte (3.7 to 100 nM), 1:1 Langmuir model
Description: as §3

T1 sequence (Q13421 other isoform, or with tags, fused parts or gaps limits assumed): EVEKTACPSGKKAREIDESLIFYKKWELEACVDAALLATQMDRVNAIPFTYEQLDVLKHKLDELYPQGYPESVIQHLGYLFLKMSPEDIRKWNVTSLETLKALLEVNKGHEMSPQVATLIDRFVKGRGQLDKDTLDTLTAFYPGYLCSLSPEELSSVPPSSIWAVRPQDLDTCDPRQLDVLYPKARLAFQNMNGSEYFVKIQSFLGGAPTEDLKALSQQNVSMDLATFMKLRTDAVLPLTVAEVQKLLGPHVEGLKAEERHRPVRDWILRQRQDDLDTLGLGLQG

B1: humanized SS1 4D5 (HdSS1) (antibody, V domains shown)
VH: EVQLVESGGGLVQPGGSLRLSCAASGYSFTGYTMNWVRQAPGKGLEWVALITPYNGASSYNQKFRGRFTISRDDSKNTLYLQMNSLRAEDTAVYYCARGGYDGRGFDYWGQGTLVTVSS
VL: DIQMTQSPSSLSASVGDRVTITCSASSSVSYMHWYQQKPGKAPKLLIYDTSKLASGVPSRFSGSGSGTDFTLTISSLQPEDFATYYCQQWSKHPLTFGQGTKVEIKR
notes: also called HdSS1 HH; HdSS1 (HH)
B1 showed a Kd [1] of 26100 pM.

B2: DCBPR2002-2(DBCO-vc-seco-DUBA)-2(DBCO-s-DM1) (other)
VH: QVQLVQSGAEVKKPGASVKVSCKASGYSFTGYTMNWVRQAPGQGLEWMGLITPYNGASSYNQKFRGRVTMTRDTSISTAYMELSRLRSDDTAVYYCARGGYDGRGFDYWGQGTLVTVSS
VL: EIVLTQSPATLSLSPGERATLSCSASSSVSYMHWYQQKPGQAPRLLIYDTSKLASGIPARFSGSGSGTDFTLTISSLEPEDFAVYYCQQWSKHPLTFGQGTKVEIKR
modifications: DBCO-vc-seco DUBA (2 per antibody) and DBCO-S-DM1 (2 per antibody) linked through GlcNAz to the tri-mannosyl N-glycan of the heavy chain constant region (DAR ~4)
In the case of B2, the “EC50 (read off the curve)” value [2] is reported as roughly 70 pM and the Kd [3] is reported as 73.2 pM.

B3: DCBPR2002-2(DBCO-vc-MMAE)-2(DBCO-s-DM1) (other)
VH: QVQLVQSGAEVKKPGASVKVSCKASGYSFTGYTMNWVRQAPGQGLEWMGLITPYNGASSYNQKFRGRVTMTRDTSISTAYMELSRLRSDDTAVYYCARGGYDGRGFDYWGQGTLVTVSS
VL: EIVLTQSPATLSLSPGERATLSCSASSSVSYMHWYQQKPGQAPRLLIYDTSKLASGIPARFSGSGSGTDFTLTISSLEPEDFAVYYCQQWSKHPLTFGQGTKVEIKR
modifications: DBCO-vc-MMAE (2 per antibody) and DBCO-S-DM1 (2 per antibody) linked through GlcNAz to the tri-mannosyl N-glycan of the heavy chain constant region (DAR ~4)
B3 showed a Kd [3] of 136 pM.

B4: humanized antibody HuSS1 (DCBPR2002) (antibody, V domains shown)
VH: QVQLVQSGAEVKKPGASVKVSCKASGYSFTGYTMNWVRQAPGQGLEWMGLITPYNGASSYNQKFRGRVTMTRDTSISTAYMELSRLRSDDTAVYYCARGGYDGRGFDYWGQGTLVTVSS
VL: EIVLTQSPATLSLSPGERATLSCSASSSVSYMHWYQQKPGQAPRLLIYDTSKLASGIPARFSGSGSGTDFTLTISSLEPEDFAVYYCQQWSKHPLTFGQGTKVEIKR
notes: also called HuSS1-HH; HuSS1 (HH)
In the case of B4, the “EC50 (read off the curve)” value [2] is reported as roughly 90 pM, the Kd [4] is reported as 16.9 pM and the Kd [5] is reported as 2.5 pM. The koff [5] was 1.12e-05 s⁻¹, the kon [5] was 4.49e+06 M⁻¹ s⁻¹ and the Kd [3] was 92.4 pM. The “EC50 (read off the curve)” value [6] was roughly 50 pM and the Kd [1] was 49.9 pM.

B5: DCBPR2002-4(DBCO-vc-seco-DUBA) (other)
VH: QVQLVQSGAEVKKPGASVKVSCKASGYSFTGYTMNWVRQAPGQGLEWMGLITPYNGASSYNQKFRGRVTMTRDTSISTAYMELSRLRSDDTAVYYCARGGYDGRGFDYWGQGTLVTVSS
VL: EIVLTQSPATLSLSPGERATLSCSASSSVSYMHWYQQKPGQAPRLLIYDTSKLASGIPARFSGSGSGTDFTLTISSLEPEDFAVYYCQQWSKHPLTFGQGTKVEIKR
modifications: DBCO-vc-seco DUBA linked through GlcNAz to the tri-mannosyl N-glycan of the heavy chain constant region; 4 per antibody (DAR ~4)
B5 gave a Kd [3] of 97.5 pM.

B6: DCBPR2002-2(DBCO-vc-MMAE)-2(DBCO-vc-seco-DUBA) (other)
VH: QVQLVQSGAEVKKPGASVKVSCKASGYSFTGYTMNWVRQAPGQGLEWMGLITPYNGASSYNQKFRGRVTMTRDTSISTAYMELSRLRSDDTAVYYCARGGYDGRGFDYWGQGTLVTVSS
VL: EIVLTQSPATLSLSPGERATLSCSASSSVSYMHWYQQKPGQAPRLLIYDTSKLASGIPARFSGSGSGTDFTLTISSLEPEDFAVYYCQQWSKHPLTFGQGTKVEIKR
modifications: DBCO-vc-MMAE (2 per antibody) and DBCO-vc-seco DUBA (2 per antibody) linked through GlcNAz to the tri-mannosyl N-glycan of the heavy chain constant region (DAR ~4)
With B6 the Kd [3] was 158 pM and the Kd [7] was 25.6 pM.

B7: DCBPR2002-4(DBCO-s-DM1) (other)
VH: QVQLVQSGAEVKKPGASVKVSCKASGYSFTGYTMNWVRQAPGQGLEWMGLITPYNGASSYNQKFRGRVTMTRDTSISTAYMELSRLRSDDTAVYYCARGGYDGRGFDYWGQGTLVTVSS
VL: EIVLTQSPATLSLSPGERATLSCSASSSVSYMHWYQQKPGQAPRLLIYDTSKLASGIPARFSGSGSGTDFTLTISSLEPEDFAVYYCQQWSKHPLTFGQGTKVEIKR
modifications: DBCO-S-DM1 linked through GlcNAz to the tri-mannosyl N-glycan of the heavy chain constant region; 4 per antibody (DAR ~4)
B7 showed a Kd [3] of 145 pM.

B8: DCBPR2002-4(DBCO-vc-MMAE) (other)
VH: QVQLVQSGAEVKKPGASVKVSCKASGYSFTGYTMNWVRQAPGQGLEWMGLITPYNGASSYNQKFRGRVTMTRDTSISTAYMELSRLRSDDTAVYYCARGGYDGRGFDYWGQGTLVTVSS
VL: EIVLTQSPATLSLSPGERATLSCSASSSVSYMHWYQQKPGQAPRLLIYDTSKLASGIPARFSGSGSGTDFTLTISSLEPEDFAVYYCQQWSKHPLTFGQGTKVEIKR
modifications: DBCO-vc-MMAE linked through GlcNAz to the tri-mannosyl N-glycan of the heavy chain constant region; 4 per antibody (DAR 3.89 by LC-MS)
B8 was tested, and the Kd [3] was 133 pM and the Kd [7] was 21.7 pM.
